Results from article PMC9271913.

Target: Human Flag-tagged RER1 TP37_38AA mutant (human)
Assay: co-IP; SH-SY5Y and U251 cells co-transfected with Flag-tagged RER1 (wild type or mutant) and NEDD4-2-HA, with or without Tg (0.5 uM); gentle RIPA lysis buffer; anti-Flag or anti-HA on Protein A/G magnetic beads, 4°C overnight; immunoblot

Sequence of Human Flag-tagged RER1 TP37_38AA mutant (human) (P78508 whole entry, change not shown): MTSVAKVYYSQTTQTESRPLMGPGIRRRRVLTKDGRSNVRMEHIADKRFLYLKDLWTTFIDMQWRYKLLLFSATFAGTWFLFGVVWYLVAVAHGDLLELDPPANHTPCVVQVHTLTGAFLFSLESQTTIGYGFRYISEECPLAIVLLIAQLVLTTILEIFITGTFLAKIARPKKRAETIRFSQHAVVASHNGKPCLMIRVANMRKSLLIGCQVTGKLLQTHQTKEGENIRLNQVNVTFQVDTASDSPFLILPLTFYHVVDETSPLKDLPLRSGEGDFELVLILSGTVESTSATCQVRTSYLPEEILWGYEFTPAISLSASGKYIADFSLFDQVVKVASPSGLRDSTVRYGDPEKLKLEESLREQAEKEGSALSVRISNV

- interaction in percent of wild-type RER1 (co-IP densitometry): 30 to 40%
Substance: Human HA-tagged NEDD4-2 (from UniProt Q96PU5-5 1-955) (natural protein)
